The source of these data is patent US9902758B2, “Three-helix bundle protein and use thereof” (Samsung Electronics Co., Ltd., priority 2015, dated 2018).

The conditions of series [1]: related art statement; cited from earlier work.
In series [2] the test system is SJSA-1 (p53+/+) osteosarcoma cell line. Kind of series: Cell cycle arrest in SJSA-1 cells (EdU / Hoescht 33342 imaging). Particulars: 10 uM, 24 hours, compared to control (Mock), FIG. 7. The format is cell-based. The protocol:
In this example, it was examined if the modified three-helix bundle proteins prepared in Example 3 can induce G1 and G2/M phase cell cycle arrest in SJSA-1 (p53+/+; ATCC), which is an osteosarcoma cell line expressing wild-type p53.
In particular, SJSA1 cells were treated with the modified three-helix bundle protein M11 or M25 at the concentration of 10 uM for 24 hours, and stained with EdU (Edu staining kit, Life Technology Inc.) and Hoescht 33342 (Life Technology Inc.). Among the cells, at least 1000 cells were analyzed by imaging with incell analyzer 6000 (Ge Healthcare) and incell communicator (GE Healthcare). For comparison, the same experiment using Nutlin 3a (Sigma) at the concentration of 10 uM was performed as a positive control.
The imaging results were analyzed by measuring the intensities of EdU (S phase indicator) and Hoescht33342 (DNA content indicator) at single cell level, and determining each population by measuring intensity of Hoescht33342 (DNA content indicator) and EdU (S phase indicator) at single cell level, thereby measuring ratio of cells at each cell cycle phase. The obtained population of each cell cycle phase was shown in FIG. 6, and the S phase measured by EdU uptake amount (EdU intensity) was shown in FIG. 7. […] G2/M is considered as a course progressing to G1 phase.

Series [3] has as its target T1, full-length HDM2 (NP 002383.2) (Homo sapiens, UniProt Q00987).
T1 construct: full-length HDM2 (NP 002383.2)
Kind of series: ELISA binding strength to full-length HDM2. Particulars: absorbance at 450 nm, GST-fused protein 0-5.5 uM, versus GST only (negative control) and GST-p53LZ2 (positive control), FIG. 4. As to the method: (§1) The binding strength of the modified three-helix bundle proteins prepared in Example 1 was examined by ELISA.
(§2) In particular, each of full-length HDM2 (NP 002383.2), HDM2 N-terminal domain (NTD; the region from 1st to 125th amino acids of NP 002383.2), full-length HDMX (NP_001191100.1), and HDMX NTD (the region from 1st to 132nd amino acids of NP_001191100.1) was diluted to the concentration of 20 μg/ml with coating buffer (pH 9.6; 0.05M carbonate-bicarbonate buffer, pH9.6; Sigma-Aldrich), and coated on 96 well (Nunc, Maxisorp). The well was incubated overnight at 4° C. Thereafter, bindings between other proteins were blocked with 300 ul of 3% skim milk w/PBS-T (at room temperature for 3 hours). The 96 well plate was washed with 200 uL of PBS-T and treated with GST-M11 (SEQ ID NO: 7) or GST-M25 (SEQ ID NO: 16) at a concentration of 0, 0.5, 1, 1.5, 2, 2.5, 3, 3.5, 4, 4.5, 5, or 5.5 uM (micromole). The GST protein was produced from GST cds included in pGEX-4T3 vector purchased from GE healthcare.
(§3) One hour after, the plate was washed with 300 uL of PBS-T, and treated with 100 uL of HRP conjugated-anti-GST antibody (Abcam, 1:2000). […] Thereafter, absorbance at 450 nm was measured using microwell reader (Molecular Device, 340PC384). […]
(In general: ELISA stands for enzyme-linked immunosorbent assay.)

Series [4] relates to SJSA-1 (p53+/+) osteosarcoma cell line. The series can be described thus: Cancer cell proliferation inhibition in SJSA-1 cells (CellTiter-Glo cell viability). The format is cell-based. Particulars: 5 days, TAT-coupled protein, FIG. 8; for cancer cell death rate: 10.00 uM. The protocol: The effects of the modified three-helix bundle proteins prepared in Example 1 to inhibit cancer cell proliferation was examined in SJSA-1 (p53+/+; ATCC), which is an osteosarcoma cell line expressing wild-type p53.
The cells were cultured in CO2 incubator under the conditions of 37° C., and CO2 5%, for 5 days. 80 uL of CellTiter-Glo reagent (Promega) was added to each well, and luminescence was measured with EnVision Multilabel Reader (PerkinElmer), to measure cell viability. The cell viability is indicated by a relative value to that of non-treated cells (“1.0”).
In general terms: Cellular ATP, detected with luciferase, serves as a proxy for viable cell number.

The target in series [5] is T2, HDMX NTD (the region from 1st to 132nd amino acids of NP_001191100.1) (Homo sapiens, UniProt O15151).
T2 construct: the region from 1st to 132nd amino acids of NP_001191100.1
T2 sequence (O15151 1-132 isoform O15151-5): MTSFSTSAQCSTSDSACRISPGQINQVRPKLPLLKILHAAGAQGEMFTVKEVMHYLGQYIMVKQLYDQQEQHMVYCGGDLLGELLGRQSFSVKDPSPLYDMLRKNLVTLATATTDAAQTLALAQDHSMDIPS
Kind of series: ELISA binding strength to HDMX NTD. The following applies: absorbance at 450 nm, GST-fused protein 0-5.5 uM, versus GST only (negative control) and GST-p53LZ2 (positive control), FIG. 3. As to the method: as §1, §2, §3

Series [6] addresses T3, HDM2 N-terminal domain (NTD; the region from 1st to 125th amino acids of NP 002383.2) (Homo sapiens, UniProt Q00987).
T3 construct: the region from 1st to 125th amino acids of NP 002383.2
The series can be described thus: ELISA binding strength to HDM2 NTD. The following applies: absorbance at 450 nm, GST-fused protein 0-5.5 uM, versus GST only (negative control) and GST-p53LZ2 (positive control), FIG. 5. The protocol:
as §1, §2, §3

T1 sequence (Q00987 1-497 isoform Q00987-11): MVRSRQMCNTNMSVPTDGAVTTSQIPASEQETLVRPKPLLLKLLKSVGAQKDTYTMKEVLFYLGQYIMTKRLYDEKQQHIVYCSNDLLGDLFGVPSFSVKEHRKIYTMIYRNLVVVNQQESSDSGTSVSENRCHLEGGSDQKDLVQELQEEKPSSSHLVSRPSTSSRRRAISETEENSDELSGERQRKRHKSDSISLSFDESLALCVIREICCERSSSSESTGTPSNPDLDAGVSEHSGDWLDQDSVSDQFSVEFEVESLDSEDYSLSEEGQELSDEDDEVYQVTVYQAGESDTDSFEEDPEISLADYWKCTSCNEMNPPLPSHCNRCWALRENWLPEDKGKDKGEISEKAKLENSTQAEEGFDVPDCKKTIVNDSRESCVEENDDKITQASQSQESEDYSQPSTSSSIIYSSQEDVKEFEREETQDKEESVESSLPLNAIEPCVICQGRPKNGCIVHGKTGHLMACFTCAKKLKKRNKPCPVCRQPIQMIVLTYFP
T3 sequence (Q00987 1-125 isoform Q00987-11): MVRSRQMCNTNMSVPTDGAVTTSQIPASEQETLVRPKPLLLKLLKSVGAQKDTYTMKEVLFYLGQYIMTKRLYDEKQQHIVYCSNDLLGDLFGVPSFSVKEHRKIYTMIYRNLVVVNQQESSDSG

Regarding `COc1ccc(C2=N[C@@H](c3ccc(Cl)cc3)[C@@H](c3ccc(Cl)cc3)N2C(=O)N2CCNC(=O)C2)c(OC(C)C)c1` [Nutlin-3], the cytotoxicity result in series [1] was “high level of cytotoxicity”.

As for `COc1ccc(C2=N[C@@H](c3ccc(Cl)cc3)[C@@H](c3ccc(Cl)cc3)N2C(=O)N2CCNC(=O)C2)c(OC(C)C)c1` [nutlin3a, Nutlin 3a, reference compound], the “level (cell number) of cells at S phase measured by EdU intensity” value (shortened to “level (cell number) of cells at S phase”) in series [2] is “decrease in level (cell number) of cells at S phase compared to that of control (Mock)”.

B1: M11: modified three-helix bundle protein, a3D variant, SEQ ID NO: 7 (protein)
chain: MGSWAEFSQRLFAIYWRLLALGGSEAELAAFEKEIAAFESELQAYKGKGNPEVEALRKEAAAIRDELQAYRHN
modifications: Synthetic M11
For B1, the “binding strength to full-length HDM2” value in series [3] was “considerably higher than that of the negative control, and similar to or higher than that of the positive control”. Further, in series [4], the “cancer cell death rate” value was “at least 90%” and the “cancer cell proliferation inhibition effect compared with positive control” value is “equal to that of Nutlin-3”. Further, the “binding strength to HDMX NTD” value in series [5] is “considerably higher than that of the negative control, and similar to or higher than that of the positive control”. Further, in series [6], the “binding strength to HDM2 NTD” value is “considerably higher than that of the negative control, and similar to or higher than that of the positive control”. In addition, in series [2], the “level (cell number) of cells at S phase” value is “decrease in level (cell number) of cells at S phase compared to that of control (Mock)”.

B2: M25: modified three-helix bundle protein, a3D variant, SEQ ID NO: 16 (protein)
chain: MGSWFEFAWRLLEIKTRLQALGGSEAELAAFEKEIAAFESELQAYKGKGNPEVEALRFEAYWIRLELQAYRHN
modifications: Synthetic M25
With B2, the “binding strength to full-length HDM2” value in series [3] was “considerably higher than that of the negative control, and similar to or higher than that of the positive control”. Also, in series [4], the “cancer cell death rate” value is reported as “at least 80%” and the “cancer cell proliferation inhibition effect compared with positive control” value is reported as “equal to that of Nutlin-3”. In addition, in series [5], the “binding strength to HDMX NTD” value was “considerably higher than that of the negative control, and similar to or higher than that of the positive control”. Besides, the “binding strength to HDM2 NTD” value in series [6] was “considerably higher than that of the negative control, and similar to or higher than that of the positive control”. The “level (cell number) of cells at S phase” value in series [2] is listed as “decrease in level (cell number) of cells at S phase compared to that of control (Mock)”.
